Experimental data: IntAct's records for PubMed 18854162

B1: CCCH-type zinc finger protein oma-1 (Caenorhabditis elegans), G5EC86 (parent)
chain: MNVNGENNEKIDEHHLESSLAGVPTLPVSPLDHAKDLSQTNPNAQIGDLVTQTANLIAIKKQLLEDIAFNQHIQSMQVRAIQSFPQNNQVAPPFQQFDPRRRGLARMQKPESYKTVICQAWLESKTCSFADNCRFAHGEEELRPTFVEPLQNNKYKTKLCDKYTTTGLCPYGKRCLFIHPDHGPNAYIRADKLLEVSQRHALADIRDQMEQHIMTNGRIAAPPLSAIQHPLEMFARPSTPDEPAAKLPLGPTPVSTRGPRYELPTKELHDAEGAMTYPPSRWPLDPSMFALDAWNMAHRPASPLDSMVLGSAPNAGSFGMLGKQNTPGGVSGYSSAGSTPSQDLSSSSLNAASAAAAAAYFANSAVAQSLLMKSVATDPMMSCNGPFSPMPGFDQLAENMTKHLNLW
partner: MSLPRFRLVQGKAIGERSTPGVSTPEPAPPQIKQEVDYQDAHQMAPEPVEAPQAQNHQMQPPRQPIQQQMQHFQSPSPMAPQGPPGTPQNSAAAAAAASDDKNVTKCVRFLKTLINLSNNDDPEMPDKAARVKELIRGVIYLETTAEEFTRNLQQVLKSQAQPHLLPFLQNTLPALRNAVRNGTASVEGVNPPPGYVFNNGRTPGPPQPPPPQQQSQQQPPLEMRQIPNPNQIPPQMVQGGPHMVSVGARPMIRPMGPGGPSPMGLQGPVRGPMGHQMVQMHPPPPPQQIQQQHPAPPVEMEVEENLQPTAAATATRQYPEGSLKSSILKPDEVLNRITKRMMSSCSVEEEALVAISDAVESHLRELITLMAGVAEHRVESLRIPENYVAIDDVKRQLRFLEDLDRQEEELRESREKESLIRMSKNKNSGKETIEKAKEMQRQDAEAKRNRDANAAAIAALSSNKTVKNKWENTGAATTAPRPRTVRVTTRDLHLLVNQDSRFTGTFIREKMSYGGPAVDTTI

Variants of: B1
Conditions: with taf4_caeel taf-4, O61707

Row | Variant | effect of a mutation on the interaction
1 | MNVNGENNEKIDEHHLESSLAGVPTLPVSPLDHAKDLSQTNPNAQIGDLVTQTANLIAIKKQLLEDIAFNQHIQSMQVRAIQSFPQNNQVAPPFQQFDPRRRGLARMQKPESYKTVICQAWLESKTCSFADNCRFAHGEEELRPTFVEPLQNNKYKTKLCDKYTTTGLCPYGKRCLFIHPDHGPNAYIRADKLLEVSQRHALADIRDQMEQHIMTNGRIAAPPLSAIQHPLEMFARPSAPDEPAAKLPLGPTPVSTRGPRYELPTKELHDAEGAMTYPPSRWPLDPSMFALDAWNMAHRPASPLDSMVLGSAPNAGSFGMLGKQNTPGGVSGYSSAGSTPSQDLSSSSLNAASAAAAAAYFANSAVAQSLLMKSVATDPMMSCNGPFSPMPGFDQLAENMTKHLNLW [T239A] | decreasing interaction
